Test results from patent US20230037911A1 (SHANGHAI HENLIUS BIOTECH, published 2023).
Positions count from the first letter of the chain named.

T1: human TIGIT stably expressed on cells (Jurkat; 293T) (human, UniProt Q495A1 22-244)
T1 construct: the expression vector's insert is not described further; also called h-TIGIT; human TIGIT transfected Jurkat cells
T1 sequence: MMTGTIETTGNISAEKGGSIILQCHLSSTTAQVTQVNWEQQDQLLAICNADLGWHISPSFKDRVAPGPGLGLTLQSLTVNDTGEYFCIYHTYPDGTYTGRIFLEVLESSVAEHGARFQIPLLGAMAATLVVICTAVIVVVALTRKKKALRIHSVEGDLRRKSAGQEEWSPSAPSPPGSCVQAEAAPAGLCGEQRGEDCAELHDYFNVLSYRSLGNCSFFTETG

T2: recombinant human TIGIT extra cellular domain (ECD) protein (human, UniProt Q495A1 22-138)
T2 construct: Purchased protein; it begins with the signal peptide; also called h-TIGIT ECD; human TIGIT ECD
T2 sequence: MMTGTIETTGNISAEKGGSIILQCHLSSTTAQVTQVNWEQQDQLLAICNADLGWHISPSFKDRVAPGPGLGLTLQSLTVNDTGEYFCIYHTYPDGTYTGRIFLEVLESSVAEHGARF

B1: 1A10 VHH (VHH)
VHH: QVQLVESGGGVVQPGRSLRLSCAASGNSFSSYPMGWFRQAPGKERESVAAISSDGRFSYYADSVKGRFTISRDNSKNTLYLQMNSLRAEDTAVYYCACRDSGSGYYSRAQWYDYWGQGTLVTVSS
notes: VHH in bacterial supernatant
B2: 6D12 VHH (VHH)
VHH: B1 VHH with N27P, S31T, R56V, S58T, C98A, A109E
notes: VHH in bacterial supernatant
B3: 2A5 VHH (VHH)
VHH: B1 VHH with N27P, D54V, S58T, C98A, A109W
notes: VHH in bacterial supernatant
B4: 5B5 VHH (VHH)
VHH: B1 VHH with N27P, G55T, S58T, C98A, Y114R
notes: VHH in bacterial supernatant
B5: 2C5 VHH (VHH)
VHH: B1 VHH with N27P, S31T, D54Q, S58T, C98A
notes: VHH in bacterial supernatant
B6: 1C7 VHH (VHH)
VHH: B1 VHH with N27P, D54R, S58T, C98A, D100G
notes: VHH in bacterial supernatant
B7: 2A6 VHH (VHH)
VHH: B1 VHH with N27P, S31L, G55R, S58T, C98A
notes: VHH in bacterial supernatant
B8: 6E9 VHH (VHH)
VHH: B1 VHH with N27P, F29R, R56K, S58T, C98A, Q110N
notes: VHH in bacterial supernatant
B9: 2D5 VHH (VHH)
VHH: B1 VHH with N27P, Y32S, S53W, S58T, C98A, D113V
notes: VHH in bacterial supernatant
B10: 6B11 VHH (VHH)
VHH: B1 VHH with N27P, S30P, D54R, S58T, C98A, A109L
notes: VHH in bacterial supernatant
B11: 5G10 VHH (VHH)
VHH: B1 VHH with N27P, S28R, S58T, C98A, Y114G
notes: VHH in bacterial supernatant
B12: 1D11 VHH (VHH)
VHH: B1 VHH with N27P, Y32S, D54M, S58T, C98A
notes: VHH in bacterial supernatant
B13: 7B11 VHH (VHH)
VHH: B1 VHH with N27P, S30L, S31I, S58W, C98A, A109V
notes: VHH in bacterial supernatant
B14: 5E8 VHH (VHH)
VHH: B1 VHH with N27P, I51Q, S58T, C98A
notes: VHH in bacterial supernatant
B15: 6D8 VHH (VHH)
VHH: B1 VHH with N27P, Y32K, I51R, S58T, C98A, Y105R
notes: VHH in bacterial supernatant
B16: 4A11 VHH (VHH)
VHH: QVKLEESGGGEAQPGGSLRLSCTASGRPFSNYTMGWFRRAPGKEREFVGLAWPSPSTYVVDSVKGRFTISRDNAKNTIYLQMNSLKPEDTAIYYCAADYKSLTQSWLNAALDYWGQGTQVTVSS
notes: VHH in bacterial supernatant

Molecular target: T1, human TIGIT stably expressed on cells …
Assay: whole cell binding on TIGIT stable cells (species not named in the legend, taken as human); scatter of EC50 against IC50, nM per the legend

Binding result, binds:
B1, B2, B3, B4, B5, B6, B7, B8, B9, B10, B11, B12, B13, B14, B15

Molecular target: T2, recombinant human TIGIT extra cellular …
Assay: ELISA, VHH in supernatant on h-TIGIT ECD coated plates

Binding result, binds:
B16

Molecular target: T2, recombinant human TIGIT extra cellular …
Assay: PVR blocking ELISA (PVR binding to h-TIGIT blocked by the clone); scatter of IC50 against EC50, nM per the legend

Binding result, binds:
B1, B2, B3, B4, B5, B6, B7, B8, B9, B10, B11, B12, B13, B14, B15
